Experiments:
Saccharomyces cerevisiae [1] = experiment: protein stability index of tFT-peptide fusion in deletion strain of DAS1 (PSI (0-1 scale)); higher = more stable (slower turnover)
Method: (§1)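 MPS profiling in S. cerevisiae of two library types built from selected 12-aa C-degron peptides (IN1, IN2, LN1, LN3, VN2, R1-R5, W1-W3, Atg1 and Rpa12 C-termini): saturation mutagenesis libraries and C-terminal +1 capping libraries (13 aa). Each peptide is fused to the C-terminus of a sfGFP-mCherry timer, after a GGGS linker. Cells are FACS-sorted into 8 mCherry/sfGFP bins and sequenced. PSI runs from 0 (unstable) to 1 (stable), measured once in wild type and in the das1Δ or doa10Δ background.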

Saccharomyces cerevisiae [2] = experiment: protein stability index of tFT-peptide fusion in wild type (PSI (0-1 scale)); higher = more stable (slower turnover); details: genetic background: wild type
Method: as §1
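Wherever protein stability index of tFT-peptide fusion in deletion strain of DAS1 is given: PSI is a weighted mean of each variant's read distribution over the sorted stability bins, computed only for variants having over 10 reads in total.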
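Wherever protein stability index of tFT-peptide fusion in wild type is given: PSI derived as read-weighted mean over the 8 sorting bins, only variants exceeding 10 total reads kept, mCherry placed adjacent to the peptide and sfGFP distal.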

| Sequence | protein stability index (Saccharomyces cerevisiae [1]) | protein stability index (Saccharomyces cerevisiae [2]) |
| --- | --- | --- |
| CTSCKYKFRTNN | 0.69 | 0.376 |
| CTSCQYKFRTNN | 0.689 | 0.334 |
| CTSHGYKFRTNN | 0.689 | 0.242 |
| CTSIGYKFRTNN | 0.695 | 0.153 |
| CTSPGYKFRTNN | 0.686 | 0.254 |
| CTSSGYKFRTNN | 0.634 | 0.413 |
| CTYCGYKFRTNN | 0.705 | 0.269 |
| FGMRWTFRYWVN | 0.53 | 0.0525 |
| FIMRWTFRYWVN | 0.251 | 0.0251 |
| FRWRVGLWRGAS | 0.668 | 0.0957 |
| FSFRWTFRYWVN | 0.54 | 0.089 |
| FSLRWTFRYWVN | 0.467 | 0.0436 |
| FSMHWTFRYWVN | 0.664 | 0.0392 |
| FSMRATFRYWVN | 0.545 | 0.0843 |
| FSMRETFRYWVN | 0.596 | 0.048 |
| FSMRTTFRYWVN | 0.623 | 0.0969 |
| FSMRWFFRYWVN | 0.602 | 0.0657 |
| FSMRWTFKYWVN | 0.485 | 0.0423 |
| FSMRWTFLYWVN | 0.383 | 0.0672 |
| FSMRWTFNYWVN | 0.719 | 0.0909 |
| FSMRWTFRYDVN | 0.572 | 0.524 |
| FSMRWTFRYWAN | 0.537 | 0.101 |
| FSMRWTFRYWKN | 0.524 | 0.634 |

| Sequence | protein stability index (Saccharomyces cerevisiae [1]) | protein stability index (Saccharomyces cerevisiae [2]) |
| --- | --- | --- |
| FSMRWTFRYWPN | 0.528 | 0.525 |
| FSMRWTFRYWVH | 0.439 | 0.094 |
| FSMRWTFRYWVI | 0.461 | 0.147 |
| FSMRWTFRYWVNE | 0.542 | 0.532 |
| FSMRWTFRYWVNL | 0.549 | 0.139 |
| FSMRWTFRYWVNW | 0.534 | 0.436 |
| FSMRWTFRYWVV | 0.526 | 0.0991 |
| FSMRWTQRYWVN | 0.545 | 0.117 |
| FSMRWWFRYWVN | 0.533 | 0.0988 |
| FSMTWTFRYWVN | 0.568 | 0.0417 |
| FYMRWTFRYWVN | 0.351 | 0.044 |
| GRWRVGLWRGAS | 0.691 | 0.447 |
| IRGAVGGWRLVG | 0.681 | 0.154 |
| KAHKKGQKQKIN | 0.858 | 0.111 |
| KDKRNHLIKLLN | 0.723 | 0.0684 |
| KEHKKGQKQKIN | 0.634 | 0.127 |
| KHHKKGQKQKIN | 0.581 | 0.101 |
| KKHFKGQKQKIN | 0.594 | 0.0456 |
| KKHIKGQKQKIN | 0.598 | 0.0778 |
| KKHKFGQKQKIN | 0.578 | 0.0916 |
| KKHKKGEKQKIN | 0.658 | 0.082 |
| KKHKKGQEQKIN | 0.543 | 0.109 |
| KKHKKGQKQDIN | 0.601 | 0.795 |

| Sequence | protein stability index (Saccharomyces cerevisiae [1]) | protein stability index (Saccharomyces cerevisiae [2]) |
| --- | --- | --- |
| KKHKKGQKQKIE | 0.585 | 0.567 |
| KKHKKGQKQKIF | 0.602 | 0.218 |
| KKHKKGQKQKIG | 0.591 | 0.226 |
| KKHKKGQKQKII | 0.632 | 0.12 |
| KKHKKGQKQKINC | 0.658 | 0.333 |
| KKHKKGQKQKINF | 0.669 | 0.652 |
| KKHKKGQKQKINK | 0.659 | 0.647 |
| KKHKKGQKQKINM | 0.662 | 0.638 |
| KKHKKGQKQKINT | 0.662 | 0.62 |
| KKHKKGQKQKIW | 0.558 | 0.637 |
| KKHKKGQKQKYN | 0.586 | 0.309 |
| KKHKKGQTQKIN | 0.591 | 0.0981 |
| KKHKKGQVQKIN | 0.649 | 0.152 |
| KKHKKSQKQKIN | 0.584 | 0.0607 |
| KKHKLGQKQKIN | 0.58 | 0.0725 |
| KKIKKGQKQKIN | 0.58 | 0.06 |
| KKQKKGQKQKIN | 0.566 | 0.177 |
| KKWKKGQKQKIN | 0.561 | 0.0754 |
| KRHKKGQKQKIN | 0.634 | 0.0723 |
| KVVYLSCVACIN | 0.0792 | 0.0215 |
| LKILPQKMNHQN | 0.686 | 0.417 |
| LKILRIKMNHQN | 0.66 | 0.19 |
| LKILRNKMNHQN | 0.703 | 0.269 |

| Sequence | protein stability index (Saccharomyces cerevisiae [1]) | protein stability index (Saccharomyces cerevisiae [2]) |
| --- | --- | --- |
| LKILRQAMNHQN | 0.658 | 0.23 |
| LKILRQDMNHQN | 0.643 | 0.647 |
| LKILRQGMNHQN | 0.667 | 0.49 |
| LKILRQHMNHQN | 0.662 | 0.201 |
| LKILRQKGNHQN | 0.676 | 0.655 |
| LKILRQKHNHQN | 0.67 | 0.322 |
| LKILRQKMNCQN | 0.673 | 0.207 |
| LKILRQKMNEQN | 0.663 | 0.253 |
| LKILRQKMNHAN | 0.657 | 0.196 |
| LKILRQKMNHIN | 0.671 | 0.183 |
| LKILRQKMNHQE | 0.675 | 0.507 |
| LKILRQKMNHQM | 0.656 | 0.244 |
| LKILRQKMNHQNR | 0.673 | 0.677 |
| LKILRQKMNHQNS | 0.671 | 0.521 |
| LKILRQKMNHQV | 0.671 | 0.189 |
| LKILRQKMNHQW | 0.679 | 0.255 |
| LKILRQKMNTQN | 0.675 | 0.212 |
| LKILRQKMRHQN | 0.669 | 0.301 |
| LKILRQKRNHQN | 0.669 | 0.299 |
| LKILRQKTNHQN | 0.69 | 0.403 |
